Patent US20190064149

B1: MT6-MMP (protein)
chain: YALSGSVWKKRTLTWRVRSFPQSSQLSQETVRVLMSYALMAWGMESGLTFHEVDSPQGQEPDILIDFARAFHQDSYPFDGLGGTLAHAFFPGEHPISGDTHFDDEETWTFGSKDGEGTDLFAVAVHEFGHALGLGHSSAPNSIMRPFYQGPVGDPDKYRLSQDDRDGLQQLYGKAPQTPYDKPTRKPLAPPPQPPASPTHSPSFPIPDRCEGNFDAIANIRGETFFFKGPWFWRLQPSGQLVSPRPARLHRFWEGLPAQVRVVQAAYARHRDGRILLFSGPQFWVFQDRQLEGGARPLTELGLPPGEEVDAVFSWPQNGKTYLVRGRQYWRYDEAAARPDPGYPRDLSLWEGAPPSPDDVTVSNAGDTYFFKGAHYWRFPKNSIKTEPDAPQPMGPNWLDCPAPSSGPRAPRPPKATPVSETCDCQCELNQA
B2: MT4-MMP (protein)
chain: QAPAPTKWNKRNLSWRVRTFPRDSPLGHDTVRALMYYALKVWSDIAPLNFHEVAGSAADIQIDFSKADHNDGYPFDGPGGTVAHAFFPGHHHTAGDTHFDDDEAWTFRSSDAHGMDLFAVAVHEFGHAIGLSHVAAAHSIMRPYYQGPVGDPLRYGLPYEDKVRVWQLYGVRESVSPTAQPEEPPLLPEPPDNRSSAPPRKDVPHRCSTHFDAVAQIRGEAFFFKGKYFWRLTRDRHLVSLQPAQMHRFWRGLPLHLDSVDAVYERTSDHKIVFFKGDRYWVFKDNNVEEGYPRPVSDFSLPPGGIDAAFSWAHNDRTYFFKDQLYWRYDDHTRHMDPGYPAQSPLWRGVPSTLDDAMRWSDGASYFFRGQEYWKVLDGELEVAPGYPQSTARDWLVCGDSQADGSVAAGVDAAEGPRAPPGQHDQSRSEDGYEVCSCTS

Target: EphA2 having Myc-labeled C-terminal

| Protein | EphA2 processed fragment, western blotting |
| --- | --- |
| B1 | a processed fragment of EphA2 (small arrow) was detected only in the MT1-MMP-introduced cells |
| B2 | a processed fragment of EphA2 (small arrow) was detected only in the MT1-MMP-introduced cells |
